Data taken from patent US20250025506A1 (INNOVATIVE CELLULAR THERAPEUTICS, published 2025).

B1: S7F9 recombinant anti-UPK2 monoclonal antibody (murine-human chimeric) (antibody, V domains shown)
VH: QVQLKQSGPGLVRPGASVTMSCKASGYTFTSNWMHWVKQRPGQGLDWIGMIDPSNSDTRLNQKFKDKATLNVDKSSNTAYMQLSSLTSDDSAVYYCMRGGGDYWGQGTTLTVSS
VL: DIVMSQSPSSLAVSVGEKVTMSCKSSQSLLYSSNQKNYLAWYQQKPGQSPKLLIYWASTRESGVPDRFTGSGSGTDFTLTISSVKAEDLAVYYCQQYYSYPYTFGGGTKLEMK
B2: S7F11 recombinant anti-UPK2 monoclonal antibody (murine-human chimeric) (antibody, V domains shown)
VH: EVQLKESGAELVRSGASVKLSCTASAFNIKDYYMNWMKQRPEQGLEWIGWIDPENGDTKYAPKFQGKATITADTSSSTAYLQLTSLTSEDSAVFYCNVNYKYDWFAYWGQGTLVTVSA
VL: DVVMTQSQKFMSTSVGDRVSVTCKASQNVGTNVAWYQQKPGQSPRALIYSASYRYSGVPDRFTGSGSGTDFTLTISNVQSEDLAEYFCQQYNTYPWTFGGGTKLEIK
B3: S3A4 recombinant anti-UPK2 monoclonal antibody (murine-human chimeric) (antibody, V domains shown)
VH: EVKLKQSGAELVKPGASVKLSCKASGYTLTSYYIYWVKQRPGQGLEWIGGISPSNGNTYFTEKFKNMATLTVDKSSNTAYMQLSSLTSEDSAVYYCARNYDYDVGFAYWGQGTLVTVSS
VL: DVVMTQTPLSLPVSLGDQASISCRSSQSIVHSNGNTYLEWYLQKPGQSPKLLIYKVSNRFSGVPDRFSGSGSGTDFTLKISRVEAEDLGVYYCFQGSHVPFTFGSGTKLEIK
B4: S2B7 recombinant anti-UPK2 monoclonal antibody (murine-human chimeric) (antibody, V domains shown)
VH: EVQLQQSGAELMKPGTSVKMSCKAAGYTFTKYWIGWVKQRPGHGLEWIGDIYPGGGYTLFNEKFKGKATLTADTSSSTAYMQLSSLTSEDSAIYYCARGNYWGQGTTLTVSS
VL: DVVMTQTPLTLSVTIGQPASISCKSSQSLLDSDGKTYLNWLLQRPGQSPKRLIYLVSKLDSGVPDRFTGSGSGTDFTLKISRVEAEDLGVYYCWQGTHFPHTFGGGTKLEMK
B5: S3D10 recombinant anti-UPK2 monoclonal antibody (murine-human chimeric) (antibody, V domains shown)
VH: QVQLQQSGAELVRSGASVKLSCTDSGFNIKDYYMNWVKQRPEQGLEWIGWIDPENGVTQYDPKFQGKATVTADTFSNTAYLQLSSLTSEDTAVYYCNANYKYDWFGYWGQGTLVTVSA
VL: NIVMTQSPSSLSASLGERVSLTCRASQEISGYLSWLQQKPDGTIKRLIYAASTLDSGVPERFSGSRSGSDYSLTISSLESEDFADYYCLQYASYPWTFGGGTKLEMK

Target: T1, UPK2 antigen on 293T cells (6600, Lenti-UPK2 antigen plasmid) (Homo sapiens (Human), UniProt O00526 85-184)
T1 construct: 293T cells transiently transfected with plasmid 6600 or infected with virus packaged from it; also called UPK2 target cells; 293T cells with UPK2 target
T1 sequence: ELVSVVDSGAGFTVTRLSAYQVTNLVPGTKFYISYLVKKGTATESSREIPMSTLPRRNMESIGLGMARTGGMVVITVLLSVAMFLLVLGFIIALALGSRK
Assay: flow cytometry, histogram of 293T-6600 cells (293T transiently transfected with plasmid 6600, UPK2-noflag) stained with the antibody; goat-anti-human FITC secondary per paragraph 179

Binder | percent of cells in the positive gate [%]
B1 | 0.19
B2 | 0.48
B3 | 27
B4 | 0.06
B5 | 0.07
